# Assay results taken from patent US20240383978A1 (NOVAROCK BIOTHERAPEUTICS, published 2024).
# B1: 1901Ab3 (bispecific antibody, human IgG1, kappa, L234A L235A)
# heavy: not shown
# light: DIQLTQSPSFLSASVGDRVPITCRASQGISNFLAWYQQKPGKAPELLIHSASTLQSGVPSRFSGSGSGTEFTLTISNLQPQDFATYYCQQVNSYPLTFGGGTKVEIKRTVAAPSVFIFPPSDEQLKSGTASVVCLLNNFYPREAKVQWKVDNALQSGNSQESVTEQDSKDSTYSLSSTLTLSKADYEKHKVYACEVTHQGLSSPVTKSFNRGECGGGGSGGGGSGGGGSQVQLVESGGGVVQPGRSLRLSCAASGFTFSNYGMHWVRQAPGKCLEWVAIIWYDGINKYYADSVKGRFTISRDNSKNTLYLQMNSLKAEDTAVYYCARDQDYDILTGYYKEDYFDFWGQGTLVTVSSGGGGSGGGGSGGGGSGGGGSSYELTQPPSVSVSPGQTARITCSGDALPKKYAYWYQQKSGQAPVLVIYEDSKRPSGIPERFSGSSSGTMATLTISGAQVEDEADYYCYSTDSSGNRVFGCGTKLTVL
# B2: 1912Ab3 (bispecific antibody, human IgG1, kappa, L234A L235A)
# heavy: not shown
# light: DIQLTQSPSFLSASVGDRVTITCRASQGISSYLAWYQQKPGKAPKLLIYAASTLQSGVPSRFSGSGSGTEFTLAVSSLQPEDFATYYCQQLNSYPYTFGQGTKLEIKRTVAAPSVFIFPPSDEQLKSGTASVVCLLNNFYPREAKVQWKVDNALQSGNSQESVTEQDSKDSTYSLSSTLTLSKADYEKHKVYACEVTHQGLSSPVTKSFNRGEC
# B3: 1925Ab4 (antibody, human IgG1, kappa, V domains shown)
# VH: QVQLQQSGPELVKPGASVRISCKASGYTFTTYYIHWVKQRPGQGLEWIGWIYPGNVNTKYTENFKDKATLTADKSSSTAYMQLSSLTSEDSAVYFCARGLYYFDFWGQGTTLTVSS
# VL: SIVMTQTPKFLLVSAGDRVTITCKASQSVNNDVAWYQQKPGQSPKLLIYYASNRDTGVPDRFTGSGFGTDFTFTISSVQAEDLAVYFCQQDYSSPYTFGGGTKLEIKR
# notes: Parental murine anti-Nectin-4 antibody; also called parental murine monoclonal antibody; monospecific anti-Nectin-4 control antibody
# B4: 1901Ab2 (bispecific antibody, human IgG1, kappa, L234A L235A)
# heavy: not shown
# light: DIQLTQSPSFLSASVGDRVPITCRASQGISNFLAWYQQKPGKAPELLIHSASTLQSGVPSRFSGSGSGTEFTLTISNLQPQDFATYYCQQVNSYPLTFGGGTKVEIKRTVAAPSVFIFPPSDEQLKSGTASVVCLLNNFYPREAKVQWKVDNALQSGNSQESVTEQDSKDSTYSLSSTLTLSKADYEKHKVYACEVTHQGLSSPVTKSFNRGEC
# B5: 1925Ab2 (bispecific antibody, human IgG1, kappa)
# heavy: not shown
# light: DIQMTQSPSSLSASVGDRVTITCKASQSVNNDVAWYQQKPGKAPKLLIYYASNRDTGVPSRFSGSGSGTDFTLTISSLQPEDFATYYCQQDYSSPYTFGQGTKLEIKRTVAAPSVFIFPPSDEQLKSGTASVVCLLNNFYPREAKVQWKVDNALQSGNSQESVTEQDSKDSTYSLSSTLTLSKADYEKHKVYACEVTHQGLSSPVTKSFNRGECGGGGSGGGGSGGGGSQVQLVESGGGVVQPGRSLRLSCAASGFTFSNYGMHWVRQAPGKCLEWVAIIWYDGINKYYADSVKGRFTISRDNSKNTLYLQMNSLKAEDTAVYYCARDQDYDILTGYYKEDYFDFWGQGTLVTVSSGGGGSGGGGSGGGGSGGGGSSYELTQPPSVSVSPGQTARITCSGDALPKKYAYWYQQKSGQAPVLVIYEDSKRPSGIPERFSGSSSGTMATLTISGAQVEDEADYYCYSTDSSGNRVFGCGTKLTVL
# B6: 1925Ab1 (bispecific antibody, human IgG1, kappa, L234A L235A)
# heavy: not shown
# light: DIQMTQSPSSLSASVGDRVTITCKASQSVNNDVAWYQQKPGKAPKLLIYYASNRDTGVPSRFSGSGSGTDFTLTISSLQPEDFATYYCQQDYSSPYTFGQGTKLEIKRTVAAPSVFIFPPSDEQLKSGTASVVCLLNNFYPREAKVQWKVDNALQSGNSQESVTEQDSKDSTYSLSSTLTLSKADYEKHKVYACEVTHQGLSSPVTKSFNRGEC
# B7: 1925Ab3 (bispecific antibody, human IgG1, kappa, L234A L235A)
# heavy: not shown
# light: B6 light
# B8: 1912Ab4 (bispecific antibody)
# heavy: not shown
# light: AIQLTQSPSSLSASVGDRVTITCRASQGINSWLAWYQQKPEKAPKSLIYAASSLQSGVPSRFSGSGSGTDFTLTISSLQPEDFATYYCQQYNFYPYTFGQGTKLEIIRTVAAPSVFIFPPSDEQLKSGTASVVCLLNNFYPREAKVQWKVDNALQSGNSQESVTEQDSKDSTYSLSSTLTLSKADYEKHKVYACEVTHQGLSSPVTKSFNRGEC
# What was measured:
# [1] = target: human CD137 on the cell surface (human, UniProt Q07011 24-255); experiment: cell-based or functional assay
# human CD137 on the cell surface, sequence (Q07011 24-255): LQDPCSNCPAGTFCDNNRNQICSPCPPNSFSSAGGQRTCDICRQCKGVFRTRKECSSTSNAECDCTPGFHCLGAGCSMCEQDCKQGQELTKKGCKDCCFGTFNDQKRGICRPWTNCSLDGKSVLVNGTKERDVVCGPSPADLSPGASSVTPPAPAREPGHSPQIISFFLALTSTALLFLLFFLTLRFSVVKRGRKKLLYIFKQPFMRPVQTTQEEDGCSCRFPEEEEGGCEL
# [2] = target: T1, human Nectin-4 (human, UniProt Q96NY8 32-510); experiment: immunofluorescence cell binding, CHO cells expressing human Nectin 4, 10 µg/ml per the text
# T1 construct: Expressed on CHO cells; also called CHO-Nectin 4
# T1 sequence: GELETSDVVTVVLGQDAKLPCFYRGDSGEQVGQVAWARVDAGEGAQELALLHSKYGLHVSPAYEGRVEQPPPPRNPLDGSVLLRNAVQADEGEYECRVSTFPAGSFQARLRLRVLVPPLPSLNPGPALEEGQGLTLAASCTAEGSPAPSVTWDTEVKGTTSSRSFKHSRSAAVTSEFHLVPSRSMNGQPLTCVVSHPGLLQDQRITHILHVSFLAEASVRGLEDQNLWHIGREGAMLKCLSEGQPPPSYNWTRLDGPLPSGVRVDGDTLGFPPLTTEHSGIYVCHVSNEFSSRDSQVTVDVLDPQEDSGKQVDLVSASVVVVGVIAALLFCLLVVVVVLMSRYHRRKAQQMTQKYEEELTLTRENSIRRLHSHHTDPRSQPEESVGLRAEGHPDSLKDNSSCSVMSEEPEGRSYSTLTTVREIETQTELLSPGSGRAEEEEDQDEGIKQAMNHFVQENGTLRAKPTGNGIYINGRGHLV
# Protocol: Bispecific Nectin-4/CD137 binding proteins were generated, produced, and purified as described in Example 4. To examine the binding activity of the BsAbs 1925Ab1, 1925Ab2 and 1925Ab3 to Nectin 4, CHO cells expressing human Nectin 4 were used in an immunofluorescence binding assay. The cells were cultured in F12K media with 10% FBS. On the day of the experiment, the cells were collected, washed, and stained with the binding proteins at 4° C. for 2 hours, followed by fixing cells with paraformaldehyde for 15 minutes at room temperature. The disclosed antibodies 1925Ab1, 1925Ab2 and 1925Ab3 are bispecific antibodies that bind to both Nectin-4 and CD137. Monospecific antibody 1925Ab4 (parental murine antibody) only binds to Nectin-4 and is used as a control antibody. The fixed cells were then washed with PBS three times, followed by staining the cells at room temperature for 1 hour with Alexa Fluor® 488 Goat Anti-Human IgG antibody (Invitrogen, Cat #: A-11013) for detection. The binding signal was assessed by quantifying the fluorescence intensity using iQue Screener PLUS (Sartorius, MI).
binder,measurement,setting,value
B1,"EC50 of CD137 signaling (NFKB-luc, Jurkat reporter cells co-cultured with NUGC4 cells)",[1],0.1 nM
B2,"EC50 of CD137 signaling (NFKB-Luc, Jurkat reporter cells co-cultured with NEC8 WT cells)",[1],0.2 nM
B3,binding result,[2],binds
B4,"EC50 of CD137 signaling (NFKB-luc, Jurkat reporter cells co-cultured with NUGC4 cells)",[1],0.047 nM
B5,"EC50 of CD137 signaling (NFKB-luc, Jurkat reporter cells with target cells)",[1],0.08 nM
B6,"EC50 of CD137 signaling (NFKB-luc, Jurkat reporter cells with target cells)",[1],0.027 nM
B7,"EC50 of CD137 signaling (NFKB-luc, Jurkat reporter cells with target cells)",[1],0.049 nM
B8,"EC50 of CD137 signaling (NFKB-Luc, Jurkat reporter cells co-cultured with NEC8 WT cells)",[1],0.18 nM
